Assay: soluble fraction after stress (log2 fold change); higher = more stays soluble; pooled small domains, quantitative proteomics
Conditions: stress: 50 degC
How it was run: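 Custom libraries of small protein domains were pooled and measured in a high-throughput format, with quantitative proteomics as the read-out. Each library was stressed at 50°C. The value is the log2 fold change in the amount of each protein that stays soluble after stress, used as a measure of aggregation propensity; higher values mean more of the protein stays soluble.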

Compared with “HMNEIEIHINKLFGKISDSKRKQELMQEITQNLNEKVSDLVSQGQTREQAVKKAIEDFGDIDDLKDELDN”, “HMTASKSTVSTPEKVVYHIVFPKETKYSIAKKYGITIEELEKRNPEIIPSLSVGQKLVIKGTAPK” is lower in “soluble fraction (log2)” value: 0.275 for the first, -0.00327 for the second.

Compared with “HMFDDEELDTFAGRQSDSYDQQEVEQFSDVLHTMRQDEVQAWWRSLTLRGISLPDELKDEVIML”, “HMGASSLVGRSARVLQAVTDSDGRIKLAGETWSARLAAGATSTVGPGEEVRVIAIHGATAIVAPV” is higher in “soluble fraction (log2)” value: -0.538 for the first, 0.0322 for the second.

Compared with “HMGTYSKQDLLQLIGRYPDGIGKREINLAFSKGTKIRNLLNIELNELLNERLITLSQGGLYIKP”, “HMKEIDVPNVVGASENAARKLLESYGFQVEVQWENGERVDNAVVKSYSPNGSAKSGSTVTIVLGT” is higher in “soluble fraction (log2)” value: -1.56 for the first, 0.062 for the second.

Compared with “HMLTQEEITRRRGEILTAAMGVILRKGFLETSMREIAEAAGVGKSTLYDYFPSKDEIMIAYVVD”, “HMLDKIRTYIDNSFTGVNETKKVKELKDELFENLKEKYNDQIQDGKTEQEAYNSVISGIGDLSELIESVK” is higher in “soluble fraction (log2)” value: -0.938 for the first, 0.553 for the second.

First: HMNNTIKFSVDENNSGKRLDVYLTENINHLTRSFLKKLIEKEQVKLNKKVLTSPATKVKTKDQITINIIE
Second: HMKNLNVIDLSALRTLELKESSDWTLIQKRFKLLVKKYHPDMNAGSKQYEEKLKKITLAYTHLKKLF
The “soluble fraction (log2)” value of the first is higher: 0.172 for the first, -2.42 for the second.

Compared with “HMHDAKTQLQEEAARRGLPAPVYTRIGQEGPDHAPRFRVRADVGPHQAEAVAGSLKLAQAEAARAILRQMP”, “HMPTTRPEAEAHYETHQRYHDLQIDVEGREAFKVATGSLTLVQEFDEKDDYDLSIPTPRSPAILLTT” is lower in “soluble fraction (log2)” value: 0.228 for the first, 0.0218 for the second.

Compared with “HMEAAETAVVTGTIVNIRSGPTLDFEAFAQVKQGDRLPVLDKFYNWYYVKLPSGVNGWISGQLVRIEQ”, “HMEDNKLKNEIKNELVSHLEKPYSVEDLADALKYHGSAAFKLIVQELAILERERAVVVTHDGNFKINSS” is lower in “soluble fraction (log2)” value: -0.25 for the first, -0.619 for the second.

First: HMKTIQVGSTVRVNQGAKTYSGGGLASFVYKRNHKVSQLQGDRAVITYEGTVVAAVHVSDLSLIH
Second: HMQSVPELDQQFKIAIENNDFIKLAQLKEQGYHPSKEVMQSLSNTTPNNTIIAVQKIFGLKA
The “soluble fraction (log2)” value of the first is lower: -0.062 for the first, 0.231 for the second.

Compared with “HMTGTKEQQVVMLNNILQKQLQAFELQGKRDYPMVTMKNMYNTLSKMVENAGLQTVESYFVDPIKGQQM”, “HMQGQADFTQGIANFTQYPVGSRITVFTLEGRRVAVVEIGKDGTAQLDMRNKPAGVYIVNTGKQSFKWLK” is lower in “soluble fraction (log2)” value: -0.0334 for the first, -1.26 for the second.

Compared with “HMETAESLLRRLIMLEDPAMQNAMYVLAVMLERGKQLVERAAKPHESGGILRVYEHKKSGDTFVVLDPR”, “HMNDYIGVDRAKEIALNHARMNESDVQFAKAKLENDDGVVEYEIEFYFGRTEYDYTIDAVSGNIIEYDVEY” is lower in “soluble fraction (log2)” value: -0.511 for the first, -1.05 for the second.

Going from “HMADTPQAYIRQMVQEAGADGIMLSTITDRLRARFKDFKVRDLGYAQMRQYMASTGTYDLEKSGRNFRVHL” to “HMENLFPDYTMQDYRIVRSELSSKFKVQTVPVTTATATENKIVRQEPEAGSRITEGMTVILYYSIGPE”, the “soluble fraction (log2)” value rises from -0.935 to -0.0582.

First: HMNNWYESSIKSLVEEYFREHGFSVVFDSSEFWDVFIEKYHKQIPSSQIALFDQVAAEARSYAFNKK
Second: HMDREQLELYVGEVRVLQVGELRRIAIGNGKVLQASALDRGQLLLIPEAPGQSVLYLWTRDGTERHLSISV
The “soluble fraction (log2)” value of the first is higher: 0.116 for the first, -0.203 for the second.

Going from “HMASIATLTVKALGGASDVVIRDKDGRIIWADRLPAGQSHRVFGHAPFNVAASHASRVQLSLLGKDVGRV” to “HMPVNGEFIERIKVMVLENKAKGKKERLTKTRMHQLLQEEGYKGSYSAFTHQVRIIEEELGVNQKEAH”, the “soluble fraction (log2)” value rises from -0.719 to -0.0836.

First: HMQPDPAFVAWVDANPWYKENRTLRALVHDYAEEVKRQEPALIGTAFLDRVKQLVQSEHPELFD
Second: HMVKNTIHVDLKGEVNKPGVYEVEEGTIVNDLITLANGFTKNAYQDNINLSKKLTDEMVIVVSKKGS
The “soluble fraction (log2)” value of the first is lower: -0.0926 for the first, 0.337 for the second.

“HMHIDQVIRERRLALGLTQEELANKIGVSAPAVSKWEKRVSYPDITLLPALARILGTDVNTLLTFS” and “HMAPLATIHVSSLSQKPFYLYGTFEDRRGNHLFFLEQIMGENKSIPVAMPSSAINPKIHASLTPPKG” are within 0.2 log units of each other in “soluble fraction (log2)” value: -0.365 for the first, -0.32 for the second.

“HMGTTKGVVDVTVPNGRASQHVKLVVIDDDGGRVVYDGTNAPGDRIVKSVSGSGNVRVQIYLNNALVQEQS” and “HMNHNPSIARKISREIKRGAPPESLLNLARTVNDSYYRSLSFVSIAYSIKGKKSKELFEEAISNLT” are within 0.2 log units of each other in “soluble fraction (log2)” value: -0.2 for the first, -0.161 for the second.

“HMESPVNTLPEDQRAWYKALPPELSTKTAVEAGAGVGVSERTVKRLLSNQTFFINLQRGNYRKRH” and “HMDIKKHISATLKREMEKRGLNFMEFSTELGIPRTTLQGYLKGTSSPQADSLEELADKLGISPAELVSG” are within 0.2 log units of each other in “soluble fraction (log2)” value: 0.172 for the first, 0.15 for the second.

Going from “HMSDEINYVIQINGKNRAEAEFGANLDKESIENLALEHERIKELLNGLTVRKIIVVPKKLVNIVA” to “HMSSKIKYSEFITMLDKGEVESVVLKSDTLTITLKHGTGVAAQTKTTTLMEDLSELTKRLEKAGIKDFDK”, the “soluble fraction (log2)” value rises from -0.312 to 0.0396.

First: HMNPLLSAYLAEVERGLQGLTAGRRRLVLRELEAHLLDEAEARGLLTEEDMRALLMEKEPPERLAQEIAQ
Second: HMDSVPEEQLRQLALDKAKEVKRWGQPVELAKMNAHDRRIIHINLQDDPEIETRSEGEGALKSVIISLKK
The “soluble fraction (log2)” value of the first is lower: -0.0936 for the first, 0.172 for the second.

— the domain aggregation screens of Martell et al. (2025)
